Publication PMC4584387 (Journal of Medicinal Chemistry, 2015)
Where no end group is shown, it is not given here.

Target: Full-length human menin (human, UniProt O00255 1-610)
Assay: fluorescence polarisation

Chain of Full-length human menin (O00255 whole entry): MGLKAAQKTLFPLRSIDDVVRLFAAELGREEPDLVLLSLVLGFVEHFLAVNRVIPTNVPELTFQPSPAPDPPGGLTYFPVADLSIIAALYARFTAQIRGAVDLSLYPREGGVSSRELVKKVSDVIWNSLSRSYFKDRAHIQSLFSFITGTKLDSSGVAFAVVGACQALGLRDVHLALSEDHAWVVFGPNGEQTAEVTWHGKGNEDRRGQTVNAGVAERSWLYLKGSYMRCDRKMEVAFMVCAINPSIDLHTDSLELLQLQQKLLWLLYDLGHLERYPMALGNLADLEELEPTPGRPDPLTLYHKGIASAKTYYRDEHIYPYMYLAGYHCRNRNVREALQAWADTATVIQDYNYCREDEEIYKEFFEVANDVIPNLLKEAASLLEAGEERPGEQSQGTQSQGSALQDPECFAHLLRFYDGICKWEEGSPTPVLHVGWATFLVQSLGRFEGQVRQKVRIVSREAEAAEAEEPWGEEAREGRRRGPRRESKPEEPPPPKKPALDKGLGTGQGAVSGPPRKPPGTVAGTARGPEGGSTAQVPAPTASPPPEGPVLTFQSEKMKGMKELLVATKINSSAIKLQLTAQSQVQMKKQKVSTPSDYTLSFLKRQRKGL

B1: FITC-MBM1 peptide of MLL (residues 4-15) (peptide, UniProt Q03164 4-15, looked up)
peptide: SCRWRFPARPGT
modifications: also: FITC label, position not given here
B1: binds.
